B1: MBP-IDM2 (natural protein, Arabidopsis thaliana, UniProt Q8RWL4 1-349, looked up)
chain: MSDTMPEIVSPLVAENSQEQEESVLISLDIEEDKLFLLHFIIGTYFGPDLRKQHHRPKQSAFQIQALKNVVVDELSGSLMKRAELERVYYHIIRNVDPSLVMKPKKLREYFNAKRNDSNRDYPLFVDLFPRKLHPETHVRHKFKFIRSIVFINDPDTSCMREECVARFKRLTGLDSFALSLSVDVTKSNGVVAANEVKVEIDESVEPVKEDNAGTCTSGEESDVAAKPEVKSEAHGGLMVGLMDIGECDDAYLFRVSLPGVKRDERYFSCEVEDNGKVLVRGVTTTGGKRVKRYSHVFEMQTRSLCPPGNFSVSFRLPGPVHPHEFSGNFGTDGILEGVVMKNLQKQTV
notes: IDM2, Arabidopsis thaliana, AT1G54840; source: E. coli, fixed to an amylose resin; not shown: MBP, N-terminal, kept
B2: His-MBD7 (natural protein, Arabidopsis thaliana, UniProt Q9FJF4 1-306, looked up)
chain: MQTRSSSSPSANHRRETQLQIADPTSFCGKIMPGWTVVNRPRSSNNGVVDTYFIEPGTGRQFSSLEAIHRHLAGEVNDRRLTRAGSFFQDKTRVYEGSRTKQDHCGVEYASKGFRLPRGWSVEEVPRKNSHYIDKYYVERKTGKRFRSLVSVERYLRESRNSIEQQLRVLQNRRGHSKDFRLPDGWIVEEKPRRSSSHIDRSYIEPGTGNKFRSMAAVERYLISVGNITLDSVSMVHSERLPLLMNRNGIRFQSEVIDPNPPKKVKWVLTGSGGNMFTANVRGSNVSSLVKHTWSEAFVSLIEDRS
notes: MBD7, Arabidopsis thaliana, AT5G59800; detected with antibodies against the His6 tag; also called His-tagged MBD7; source: E. coli, purified; not shown: His6, N-terminal, kept

What was measured:
Assay in all cases: pull-down; MBP fusion from E. coli fixed to amylose resin, incubated with His-tagged protein purified from E. coli; immunoblot against His6 tag
Settings in all cases: both partners purified
[1] = target: T1, His-IDL1 (Arabidopsis thaliana, UniProt Q9SYQ0 1-463)
T1 construct: IDL1, Arabidopsis thaliana, AT1G20870; detected with antibodies against the His6 tag; also called His-tagged IDL1; source: E. coli, purified; not shown: His6, N-terminal, kept
T1 sequence (looked up): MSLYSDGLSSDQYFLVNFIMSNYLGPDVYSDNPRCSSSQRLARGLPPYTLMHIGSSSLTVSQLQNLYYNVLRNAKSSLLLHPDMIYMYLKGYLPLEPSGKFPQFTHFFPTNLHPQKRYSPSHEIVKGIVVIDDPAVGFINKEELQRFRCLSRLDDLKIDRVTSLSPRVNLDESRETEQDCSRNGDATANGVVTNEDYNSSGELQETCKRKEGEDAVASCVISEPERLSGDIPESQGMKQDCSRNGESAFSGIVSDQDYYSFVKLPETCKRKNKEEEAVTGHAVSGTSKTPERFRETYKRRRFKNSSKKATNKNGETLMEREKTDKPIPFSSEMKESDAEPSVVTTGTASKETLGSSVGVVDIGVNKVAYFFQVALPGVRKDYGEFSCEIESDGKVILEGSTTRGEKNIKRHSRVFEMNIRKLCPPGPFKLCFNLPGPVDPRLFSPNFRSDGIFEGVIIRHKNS

[2] = target: B1
[3] = target: T2, MBP-IDL1 (Arabidopsis thaliana, UniProt Q9SYQ0 1-463)
T2 construct: IDL1, Arabidopsis thaliana, AT1G20870; source: E. coli, fixed to an amylose resin; not shown: MBP, N-terminal, kept
T2 sequence (looked up): T1 sequence (looked up)

Binder: B1
- binding result [1]: binds

Binder: B2
- binding result [2]: binds
- binding result [3]: binds

— publication PMC4416881, “Regulation of Active DNA Demethylation by a Methyl-CpG-Binding Domain Protein in Arabidopsis thaliana” (PLoS Genetics, 2015)
